# Measurements published in the supplement of paper PMC11246515.
# ± gives the standard deviation of the averaged measurements.
# Experiment: total protein half-life in vivo (active degradation + dilution); higher = more stable protein
# [1] = E. coli NCM3722 delta-clpP delta-lon delta-hslV, growth: N-lim chemostat, doubling time 6 h
# [2] = E. coli NCM3722 delta-clpP, growth: N-lim chemostat, doubling time 6 h
# [3] = E. coli NCM3722 delta-hslV, growth: N-lim chemostat, doubling time 6 h
# [4] = E. coli NCM3722 delta-lon, growth: N-lim chemostat, doubling time 6 h
# [5] = E. coli NCM3722 delta-smpB, growth: N-lim chemostat, doubling time 6 h
# [6] = wild type E. coli NCM3722, growth: C-lim chemostat, doubling time 3 h
# [7] = wild type E. coli NCM3722, growth: C-lim chemostat, doubling time 6 h
# [8] = wild type E. coli NCM3722, growth: C-lim chemostat, doubling time 12 h
# [9] = wild type E. coli NCM3722, growth: N-lim chemostat, doubling time 6 h
# [10] = wild type E. coli NCM3722, growth: N-lim chemostat, doubling time 12 h
# [11] = wild type E. coli NCM3722, growth: P-lim chemostat, doubling time 6 h
# [12] = wild type E. coli NCM3722, growth: P-lim chemostat, doubling time 12 h
Sequence,total protein half-life in vivo [1] [h],total protein half-life in vivo [2] [h],total protein half-life in vivo [3] [h],total protein half-life in vivo [4] [h],total protein half-life in vivo [5] [h],total protein half-life in vivo [6] [h],total protein half-life in vivo [7] [h],total protein half-life in vivo [8] [h],total protein half-life in vivo [9] [h],total protein half-life in vivo [10] [h],total protein half-life in vivo [11] [h],total protein half-life in vivo [12] [h]
MRILHTSDWHLGQNFYSKSREAEHQAFLDWLLETAQTHQVDAIIVAGDVFDTGSPPSYARTLYNRFVVNLQQTGCHLVVLAGNHDSVATLNESRDIMAFLNTTVVASAGHAPQILPRRDGTPGAVLCPIPFLRPRDIITSQAGLNGIEKQQHLLAAITDYYQQHYADACKLRGDQPLPIIATGHLTTVGASKSDAVRDIYIGTLDAFPAQNFPPADYIALGHIHRAQIIGGMEHVRYCGSPIPLSFDECGKSKYVHLVTFSNGKLESVENLNVPVTQPMAVLKGDLASITAQLEQWRDVSQEPPVWLDIEITTDEYLHDIQRKIQALTESLPVEVLLVRRSREQRERVLASQQRETLSELSVEEVFNRRLALEELDESQQQRLQHLFTTTLHTLAGEHEA [P0AG76],5.77 ± 0.37,4.79 ± 1.6,4.67 ± 0.67,4.54 ± 0.071,4.5 ± 0.46,2.6 ± 0.049,5.4 ± 0.27,9.11 ± 1.4,4.54 ± 0.17,7.66 ± 0.56,5.46 ± 0.31,7.9 ± 0.1
MRIPRIYHPEPLTSHSHIALCEDAANHIGRVLRMGPGQALQLFDGSNQVFDAEITSASKKSVEVKVLEGQIDDRESPLHIHLGQVMSRGEKMEFTIQKSIELGVSLITPLFSERCGVKLDSERLNKKLQQWQKIAIAACEQCGRNRVPEIRPAMDLEAWCAEQDEGLKLNLHPRASNSINTLPLPVERVRLLIGPEGGLSADEIAMTARYQFTDILLGPRVLRTETTALTAITALQVRFGDLG [P0AGL7],,5.91 ± 0.64,5.44 ± 0.24,5.41 ± 0.067,5.19 ± 0.13,2.98 ± 0.25,6.14 ± 1.9,10.1 ± 2.1,5.45 ± 0.37,10.7 ± 0.42,6.05 ± 0.38,12.31 ± 0.12
MRIRYGWELALAALLVIEIVAFGAINPRMLDLNMLLFSTSDFICIGIVALPLTMVIVSGGIDISFGSTIGLCAIALGVLFQSGVPMPLAILLTLLLGALCGLINAGLIIYTKVNPLVITLGTLYLFAGSALLLSGMAGATGYEGIGGFPMAFTDFANLDVLGLPVPLIIFLICLLVFWLWLHKTHAGRNVFLIGQSPRVALYSAIPVNRTLCALYAMTGLASAVAAVLLVSYFGSARSDLGASFLMPAITAVVLGGANIYGGSGSIIGTAIAVLLVGYLQQGLQMAGVPNQVSSALSGALLIVVVVGRSVSLHRQQIKEWLARRANNPLP [P0AFS1],,,,,,,6.11,13.4,,,,
MRISLKKSGMLKLGLSLVAMTVAASVQAKTLVYCSEGSPEGFNPQLFTSGTTYDASSVPLYNRLVEFKIGTTEVIPGLAEKWEVSEDGKTYTFHLRKGVKWHDNKEFKPTRELNADDVVFSFDRQKNAQNPYHKVSGGSYEYFEGMGLPELISEVKKVDDNTVQFVLTRPEAPFLADLAMDFASILSKEYADAMMKAGTPEKLDLNPIGTGPFQLQQYQKDSRIRYKAFDGYWGTKPQIDTLVFSITPDASVRYAKLQKNECQVMPYPNPADIARMKQDKSINLMEMPGLNVGYLSYNVQKKPLDDVKVRQALTYAVNKDAIIKAVYQGAGVSAKNLIPPTMWGYNDDVQDYTYDPEKAKALLKEAGLEKGFSIDLWAMPVQRPYNPNARRMAEMIQADWAKVGVQAKIVTYEWGEYLKRAKDGEHQTVMMGWTGDNGDPDNFFATLFSCAASEQGSNYSKWCYKPFEDLIQPARATDDHNKRVELYKQAQVVMHDQAPALIIAHSTVFEPVRKEVKGYVVDPLGKHHFENVSIE,6.22 ± 0.29,6.39 ± 1.1,6.489 ± 0.018,6.6 ± 0.13,5.83 ± 0.096,3.33 ± 0.069,6.97 ± 1.4,14.3 ± 1.9,6.058 ± 0.029,12.9 ± 0.92,6.06 ± 0.45,13.1 ± 0.31
MRITIILVAPARAENIGAAARAMKTMGFSDLRIVDSQAHLEPATRWVAHGSGDIIDNIKVFPTLAESLHDVDFTVATTARSRAKYHYYATPVELVPLLEEKSSWMSHAALVFGREDSGLTNEELALADVLTGVPMVADYPSLNLGQAVMVYCYQLATLIQQPAKSDATADQHQLQALRERAMTLLTTLAVADDIKLVDWLQQRLGLLEQRDTAMLHRLLHDIEKNITK,,4 ± 0.61,3.98 ± 0.83,4.08 ± 0.37,3.38 ± 0.046,,5.62 ± 0.99,7.53 ± 0.58,3.72 ± 0.22,5.26 ± 0.45,4.87 ± 0.26,11.5 ± 2.5
MRITIYTRNDCVQCHATKRAMENRGFDFEMINVDRVPEAAEALRAQGFRQLPVVIAGDLSWSGFRPDMINRLHPAPHAASA [P0AC65],2.48 ± 0.033,,,,,,,,,,,
MRKFIFVLLTLLLVSPFSFAMKGIIWQPQNRDSQVTDTQWQGLMSQLRLQGFDTLVLQWTRYGDAFTQPEQRTLLFKRAAAAQQAGLKLIVGLNADPEFFMHQKQSSAALESYLNRLLAADLQQARLWSAAPGITPDGWYISAEIDDLNWRSEAARQPLLTWLNNAQRLISDVSAKPVYISSFFAGNMSPDGYRQLLEHVKATGVNVWVQDGSGVDKLTAEQRERYLQASADCQSPAPASGVVYELFVAGKGKTFTAKPKPDAEIASLLAKRSSCGKDTLYFSLRYLPVAHGILEY,5.13 ± 0.23,6.05 ± 0.4,,6.25 ± 0.24,5.08 ± 1.3,,6.17 ± 0.52,,5.78 ± 0.16,11.8 ± 1.6,5.96 ± 0.13,12.5 ± 0.58
